# Reference: article PMC4728560, “TCTP contains a BH3-like domain, which instead of inhibiting, activates Bcl-xL” (Scientific Reports, 2016)
# Like-named read-outs stand apart in the source and are kept apart here.
# Columns and labels:
# [1] = molecular target: Bcl-xL, recombinant protein (human) (UniProt Q07817); assay: ITC; peptide titrated into Bcl-xL in the cell; 30 °C, 50 mM ammonium bicarbonate pH 9; ITC200 calorimeter
# [2] = molecular target: Bcl-xL, recombinant protein (human) (UniProt Q07817); assay: as above; remark: listed apart in the source
# Sequence of Bcl-xL, recombinant protein (human) (Q07817 whole entry): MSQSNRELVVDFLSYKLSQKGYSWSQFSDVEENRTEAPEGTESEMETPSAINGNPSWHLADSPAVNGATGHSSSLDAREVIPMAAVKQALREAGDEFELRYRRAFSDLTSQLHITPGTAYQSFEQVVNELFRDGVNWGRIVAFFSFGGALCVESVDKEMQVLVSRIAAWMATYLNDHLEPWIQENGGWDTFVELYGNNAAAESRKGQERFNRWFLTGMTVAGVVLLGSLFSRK
binder,measurement,setting,value
DEMFSDIYKIREIADGLCLEV [TCTP_(11–31) peptide],Kd,[1],12 µM
same,Kd,[2],10 to 15 µM
